Measured values as given in patent US20260242458A1 (NOVAROCK BIOTHERAPEUTICS, published 2026).
One block for each binder: values may come before it.

Columns and labels:
[1] = molecular target: T1, recombinant human IL-25 protein (human, UniProt Q9H293 33-177); test: BLI, Fab; species of IL-25 not stated, taken as human
T1 construct: Bought (Acro, catalog no: IL5-H4221) for ELISA; also called hIL-25; IL-17E
T1 sequence: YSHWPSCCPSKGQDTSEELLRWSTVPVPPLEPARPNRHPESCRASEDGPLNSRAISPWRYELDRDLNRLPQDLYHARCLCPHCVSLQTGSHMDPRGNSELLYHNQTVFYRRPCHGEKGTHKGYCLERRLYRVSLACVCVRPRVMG

[2] = molecular target: T1, recombinant human IL-25 protein; test: ELISA, IL-25 coated, goat anti-human kappa light chain-HRP detection
Method: (§1) In this study, the ability of three humanized anti-IL-25 antibodies generated in hIgG1 (IL25Ab6 to Ab8) and hIgG1 YTE formats (IL25Ab9 to Ab11) binding to both human, mouse and cynomolgus IL-25 was evaluated using ELISA. Briefly, recombinant human IL-25 protein (Acro, catalog no: IL5-H4221, lot no: 401-20CNF1-UT), recombinant mouse IL-25 protein (Sino Biological Inc, catalog no: 50138-M07H, lot no: LC15AP0607) or recombinant cynomolgus IL-25 protein (Sino Biological Inc, catalog no: customized order, lot no: MB17MA2715) was directly coated to ELISA plates, respectively. Recombinant antibodies were then added to the plates followed by detection using goat-anti-human Kappa Light Chain antibody HRP (Novus, catalog no: NBP1-75064, Lot no: 68-188-010920). After the addition of ABTS (Moss Inc., catalog no: ABTS-1000, Lot no: 03086202) substrate, ELISA plates were read using an ELISA plate reader (Bioteck).

[3] = molecular target: T2, recombinant cynomolgus IL-25 protein (cynomolgus monkey, UniProt Q9H293 33-177 (human entry), limits assumed); test: as above
T2 construct: Bought (Sino Biological Inc, customized order); also called cyno IL-25
T2 chain: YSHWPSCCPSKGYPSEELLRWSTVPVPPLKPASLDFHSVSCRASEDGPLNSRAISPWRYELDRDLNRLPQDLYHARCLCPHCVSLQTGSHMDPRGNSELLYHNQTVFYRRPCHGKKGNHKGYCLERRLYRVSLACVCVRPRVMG
Method: as §1

[4] = molecular target: T3, recombinant mouse IL-25 protein (mouse, UniProt Q8VHH8 17-169); test: as above
T3 construct: Bought (Sino Biological Inc, catalog no: 50138-M07H)
T3 sequence: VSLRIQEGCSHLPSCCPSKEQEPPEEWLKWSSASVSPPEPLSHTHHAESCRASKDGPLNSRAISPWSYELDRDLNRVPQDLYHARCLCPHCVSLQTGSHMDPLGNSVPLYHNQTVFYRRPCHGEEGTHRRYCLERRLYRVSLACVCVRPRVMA
Method: as §1

[5] = molecular target: T1, recombinant human IL-25 protein; test: cell-based or functional assay
[6] = molecular target: T1, recombinant human IL-25 protein; test: cell-based or functional assay; remark: listed apart in the source
[7] = molecular target: T1, recombinant human IL-25 protein; test: cell-based or functional assay; remark: listed apart in the source

EC50 [2]: 0.364 nM | EC50 [3]: 0.266 nM | EC50 [4]: 0.284 nM | IC50, IL-25 induced CXCL1 production in HT-29 cells [5]: 0.198 nM | IC50, IL-25 induced NF-kB signaling (SEAP) in HEK-Blue IL-17 reporter cells [6]: 0.052 nM | IC50, IL-25 induced IL-5 production in human PBMC [7]: 1.43 nM
B4: IL25Ab10 (antibody, V domains shown)
VH: QVQLVQSGAEVKKPGASVKVSCKASGYSFTGYTMNWVRQAPGQGLEWMGLINPDNGGTSYKQKFQGRVTMTVDKSISTAYMELSRLRSDDTAVYYCAREGYYGPSPFHHYAMDYWGQGTLVTVSS
VL: DIQMTQSPSSLSASVGDRVTITCQASQDISNYLNWYQQKPDGTIKLLIYYTSTLHTGVPSRFSGSGSGTDYTFTISSLQPEDIATYYCQQYSKLPYTFGQGTKLEIK

EC50 [2]: 0.318 nM | EC50 [3]: 0.239 nM | EC50 [4]: 0.258 nM | IC50, IL-25 induced CXCL1 production in HT-29 cells [5]: 0.187 nM | IC50, IL-25 induced NF-kB signaling (SEAP) in HEK-Blue IL-17 reporter cells [6]: 0.037 nM | IC50, IL-25 induced IL-5 production in human PBMC [7]: 0.953 nM
B6: IL25Ab11 (antibody, IgG1, V domains shown)
VH: QVQLVQSGAEVKKPGASVKVSCKASGYSFTGYTMNWVRQAHGKNLEWMGLINPDNGGTSHKQKFQGRVTMTVDKSISTAYMELSRLRSDDTAVYYCAREGYYGPSPFHHYAMDYWGQGTLVTVSS
VL: DIQMTQSPSSLSASVGDRVTITCQASQDISNYLNWYQQKPDGTIKLLIYYTSTLHTGVPSRFSGSGSGTDYTLTISSLQPEDIATYYCQQYSKLPYTFGGGTKLEIK

EC50 [2]: 0.312 nM | EC50 [3]: 0.222 nM | EC50 [4]: 0.232 nM | IC50, IL-25 induced CXCL1 production in HT-29 cells [5]: 0.225 nM | IC50, IL-25 induced NF-kB signaling (SEAP) in HEK-Blue IL-17 reporter cells [6]: 0.043 nM | IC50, IL-25 induced IL-5 production in human PBMC [7]: 0.435 nM
B8: IL25Ab9 (antibody, V domains shown)
VH: QVQLVQSGAEVKKPGASVKVSCKASGYSFTGYTMNWVRQAPGQGLEWMGLINPDNGGTSYKQKFQGRVTMTVDKSISTAYMELSRLRSDDTAVYYCAREGYYGPSPFHHYAMDYWGQGTLVTVSS
VL: DIQMTQSPSSLSASVGDRVTITCQASQDISNYLNWYQQKPGKAPKLLIYYTSTLHTGVPSRFSGSGSGTDYTFTISSLQPEDIATYYCQQYSKLPYTFGQGTKLEIK

Kd [1]: 1.78 nM | koff [1]: 0.000251 s⁻¹ | kon [1]: 141000 M⁻¹ s⁻¹
B10: IL25Ab8 Fab (Fab, V domains shown)
VH: QVQLVQSGAEVKKPGASVKVSCKASGYSFTGYTMNWVRQAHGKNLEWMGLINPDNGGTSHKQKFQGRVTMTVDKSISTAYMELSRLRSDDTAVYYCAREGYYGPSPFHHYAMDYWGQGTLVTVSS
VL: DIQMTQSPSSLSASVGDRVTITCQASQDISNYLNWYQQKPDGTIKLLIYYTSTLHTGVPSRFSGSGSGTDYTLTISSLQPEDIATYYCQQYSKLPYTFGGGTKLEIK
notes: VH/VL assigned as for IL25Ab8

Further lines, the binder ahead of its results:

B1: IL25Ab3 Fab (Fab, V domains shown)
VH: EVQLQQSGPELVKPGGSVRISCKASGYSFTGYTMNWVKQSHGKNLEWIGLINPDNGGTSHKQRFMGKATLTVDKSSSTAYMELLSLTSEDSAVYYCAREGYYGPSPFHHYAMDYWGQGTSVTVSS
VL: DIQMTQTTSSLSASLGDRVTISCSASQDISNYLNWYQQKPDGTIKLLIYYTSTLHSGVPSRFSGSGSGTDYSLTISNLEPEDIATYYCQQYSKLPYTFGGGTKLEIK
notes: VH/VL assigned as for IL25Ab3; also called murine parental Fab
Kd [1]: 1.89 nM | koff [1]: 0.000285 s⁻¹ | kon [1]: 150000 M⁻¹ s⁻¹

B2: IL25Ab7 (antibody, IgG1, V domains shown)
VH: QVQLVQSGAEVKKPGASVKVSCKASGYSFTGYTMNWVRQAPGQGLEWMGLINPDNGGTSYKQKFQGRVTMTVDKSISTAYMELSRLRSDDTAVYYCAREGYYGPSPFHHYAMDYWGQGTLVTVSS
VL: DIQMTQSPSSLSASVGDRVTITCQASQDISNYLNWYQQKPDGTIKLLIYYTSTLHTGVPSRFSGSGSGTDYTFTISSLQPEDIATYYCQQYSKLPYTFGQGTKLEIK
EC50 [2]: 0.327 nM | EC50 [3]: 0.245 nM | EC50 [4]: 0.243 nM | IC50, IL-25 induced CXCL1 production in HT-29 cells [5]: 0.183 nM | IC50, IL-25 induced NF-kB signaling (SEAP) in HEK-Blue IL-17 reporter cells [6]: 0.042 nM | IC50, IL-25 induced IL-5 production in human PBMC [7]: 0.85 nM

B3: IL25Ab7 Fab (Fab, V domains shown)
VH: QVQLVQSGAEVKKPGASVKVSCKASGYSFTGYTMNWVRQAPGQGLEWMGLINPDNGGTSYKQKFQGRVTMTVDKSISTAYMELSRLRSDDTAVYYCAREGYYGPSPFHHYAMDYWGQGTLVTVSS
VL: DIQMTQSPSSLSASVGDRVTITCQASQDISNYLNWYQQKPDGTIKLLIYYTSTLHTGVPSRFSGSGSGTDYTFTISSLQPEDIATYYCQQYSKLPYTFGQGTKLEIK
notes: VH/VL assigned as for IL25Ab7
Kd [1]: 1.8 nM | koff [1]: 0.00029 s⁻¹ | kon [1]: 161000 M⁻¹ s⁻¹

B5: IL25Ab6 (antibody, V domains shown)
VH: QVQLVQSGAEVKKPGASVKVSCKASGYSFTGYTMNWVRQAPGQGLEWMGLINPDNGGTSYKQKFQGRVTMTVDKSISTAYMELSRLRSDDTAVYYCAREGYYGPSPFHHYAMDYWGQGTLVTVSS
VL: DIQMTQSPSSLSASVGDRVTITCQASQDISNYLNWYQQKPGKAPKLLIYYTSTLHTGVPSRFSGSGSGTDYTFTISSLQPEDIATYYCQQYSKLPYTFGQGTKLEIK
EC50 [2]: 0.302 nM | EC50 [3]: 0.241 nM | EC50 [4]: 0.242 nM | IC50, IL-25 induced CXCL1 production in HT-29 cells [5]: 0.225 nM | IC50, IL-25 induced NF-kB signaling (SEAP) in HEK-Blue IL-17 reporter cells [6]: 0.048 nM | IC50, IL-25 induced IL-5 production in human PBMC [7]: 0.381 nM

B7: IL25Ab8 (antibody, IgG1, V domains shown)
VH: QVQLVQSGAEVKKPGASVKVSCKASGYSFTGYTMNWVRQAHGKNLEWMGLINPDNGGTSHKQKFQGRVTMTVDKSISTAYMELSRLRSDDTAVYYCAREGYYGPSPFHHYAMDYWGQGTLVTVSS
VL: DIQMTQSPSSLSASVGDRVTITCQASQDISNYLNWYQQKPDGTIKLLIYYTSTLHTGVPSRFSGSGSGTDYTLTISSLQPEDIATYYCQQYSKLPYTFGGGTKLEIK
EC50 [2]: 0.404 nM | EC50 [3]: 0.295 nM | EC50 [4]: 0.332 nM | IC50, IL-25 induced CXCL1 production in HT-29 cells [5]: 0.199 nM | IC50, IL-25 induced NF-kB signaling (SEAP) in HEK-Blue IL-17 reporter cells [6]: 0.041 nM | IC50, IL-25 induced IL-5 production in human PBMC [7]: 1.04 nM

B9: IL25Ab6 Fab (Fab, V domains shown)
VH: QVQLVQSGAEVKKPGASVKVSCKASGYSFTGYTMNWVRQAPGQGLEWMGLINPDNGGTSYKQKFQGRVTMTVDKSISTAYMELSRLRSDDTAVYYCAREGYYGPSPFHHYAMDYWGQGTLVTVSS
VL: DIQMTQSPSSLSASVGDRVTITCQASQDISNYLNWYQQKPGKAPKLLIYYTSTLHTGVPSRFSGSGSGTDYTFTISSLQPEDIATYYCQQYSKLPYTFGQGTKLEIK
Kd [1]: 1.86 nM | koff [1]: 0.000249 s⁻¹ | kon [1]: 134000 M⁻¹ s⁻¹
